Drawing on article PMC2784006, this text covers % increase in fluorescence intensity for 4 molecules.

B1: calcium/calmodulin-dependent serine protein kinase (CASK) (natural protein)
chain: MADDDVLFEDVYELCEVIGKGPFSVVRRCINRETGQQFAVKIVDVAKFTSSPGLSTEDLKREASICHMLKHPHIVELLETYSSDGMLYMVFEFMDGADLCFEIVKRADAGFVYSEAVASHYMRQILEALRYCHDNNIIHRDVKPHCVLLASKENSAPVKLGGFGVAIQLGESGLVAGGRVGTPHFMAPEVVKREPYGKPVDVWGCGVILFILLSGCLPFYGTKERLFEGIIKGKYKMNPRQWSHISESAKDLVRRMLMLDPAERITVYEALNHPWLKERDRYAYKIHLPETVEQLRKFNARRKLKGAVLAAVSSHKFNSFYGDPPEELPDFSEDPTSSGLLAAERAVSQVLDSLEEIHALTDCSEKDLDFLHSVFQDQHLHTLLDLYDKINTKSSPQIRNPPSDAVQRAKEVLEEISCYPENNDAKELKRILTQPHFMALLQTHDVVAHEVYSDEALRVTPPPTSPYLNGDSPESANGDMDMENVTRVRLVQFQKNTDEPMGITLKMNELNHCIVARIMHGGMIHRQGTLHVGDEIREINGISVANQTVEQLQKMLREMRGSITFKIVPSYRTQSSSCERDSPSTSRQSPANGHSSTNNSVSDLPSTTQPKGRQIYVRAQFEYDPAKDDLIPCKEAGIRFRVGDIIQIISKDDHNWWQGKLENSKNGTAGLIPSPELQEWRVACIAMEKTKQEQQASCTWFGKKKKQYKDKYLAKHNAVFDQLDLVTYEEVVKLPAFKRKTLVLLGAHGVGRRHIKNTLITKHPDRFAYPIPHTTRPPKKDEENGKNYYFVSHDQMMQDISNNEYLEYGSHEDAMYGTKLETIRKIHEQGLIAILDVEPQALKVLRTAEFAPFVVFIAAPTITPGLNEDESLQRLQKESDVLQRTYAHYFDLTIINNEIDETIRHLEEAVELVCTAPQWVPVSWVY

The target of this assay is HA-tagged Synaptic Cell Adhesion Molecule 1 (HA-SynCAM1), full length (mouse). The assay is described as follows: Cell Adhesion Molecule / Receptor Recruitment Assay.
Sequence of HA-tagged Synaptic Cell Adhesion Molecule 1 (HA-SynCAM1), full length (mouse) (Q8R5M8 48-456): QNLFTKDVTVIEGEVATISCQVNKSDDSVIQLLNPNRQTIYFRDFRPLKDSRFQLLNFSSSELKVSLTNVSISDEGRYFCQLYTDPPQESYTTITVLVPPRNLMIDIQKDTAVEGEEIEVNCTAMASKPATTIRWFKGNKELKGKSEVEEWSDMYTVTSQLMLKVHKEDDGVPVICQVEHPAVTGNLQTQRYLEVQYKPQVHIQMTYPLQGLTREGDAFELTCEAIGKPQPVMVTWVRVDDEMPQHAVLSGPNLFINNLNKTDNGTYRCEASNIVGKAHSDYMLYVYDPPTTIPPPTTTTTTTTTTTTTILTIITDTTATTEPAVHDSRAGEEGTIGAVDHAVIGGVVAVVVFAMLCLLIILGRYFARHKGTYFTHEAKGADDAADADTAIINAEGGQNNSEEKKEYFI
“GFP-tagged erythrocyte protein band 4.1-like 3 (protein 4.1B), full length (4.1B-GFP) (natural protein)” registered a % increase in fluorescence intensity at microspheres relative to background of 114%.

As for “Syntenin1-GFP (from UniProt O00560 1-298) (natural protein)”, the % increase in fluorescence intensity at microspheres relative to background was 91.8%.

Turning to “protein 4.1N, GFP tagged (4.1N-GFP) (from UniProt Q9Z2H5 1-879) (natural protein)”, the % increase in fluorescence intensity at microspheres relative to background was determined as 100%.

Take B1: the % increase in fluorescence intensity at microspheres relative to background was found to be 123%.
